Test results from US20200048331A1 (CANIMGUIDE THERAPEUTICS, published 2020).
Where no end group is shown, it is not given here. The star is where a group is joined. Cam = NC(=O)C*

B1: synthesized albumin peptide 2606 KLDELRDEGKAS (peptide)
peptide: KLDELRDEGKAS
notes: Synthetic (CSBio); also called E5K peptide 2606
B2: synthesized albumin peptide 2605 NEETFLKKYLYE (peptide)
peptide: NEETFLKKYLYE
notes: Synthetic (CSBio); also called E5K peptide 2605

Target: artificial cell surface (ACS): biotinylated cell surface proteins from human mononuclear blood cells coupled to streptavidin-sepharose
Assay: ACS affinity column adsorption of tryptic dHSA peptides, MALDI-TOF ms; first of two lines for this peptide

Molecule | Per cent adsorbed (per cent adsorbed, printed as fraction)
QEPERNEC(Cam)FLQHK [HSA tryptic peptide residues 118-130 …] | 0.26

Target: T1, LFA-1 (CD11a) on immune cells (human, UniProt P20701 26-1170; P05107 23-769)
T1 construct: whole, on cells; On acetone-fixed cytospin preparations of human PBMC or THP-1 cells; also called β2-integrin
T1 sequence (P20701 26-1170, chain 1 of 2): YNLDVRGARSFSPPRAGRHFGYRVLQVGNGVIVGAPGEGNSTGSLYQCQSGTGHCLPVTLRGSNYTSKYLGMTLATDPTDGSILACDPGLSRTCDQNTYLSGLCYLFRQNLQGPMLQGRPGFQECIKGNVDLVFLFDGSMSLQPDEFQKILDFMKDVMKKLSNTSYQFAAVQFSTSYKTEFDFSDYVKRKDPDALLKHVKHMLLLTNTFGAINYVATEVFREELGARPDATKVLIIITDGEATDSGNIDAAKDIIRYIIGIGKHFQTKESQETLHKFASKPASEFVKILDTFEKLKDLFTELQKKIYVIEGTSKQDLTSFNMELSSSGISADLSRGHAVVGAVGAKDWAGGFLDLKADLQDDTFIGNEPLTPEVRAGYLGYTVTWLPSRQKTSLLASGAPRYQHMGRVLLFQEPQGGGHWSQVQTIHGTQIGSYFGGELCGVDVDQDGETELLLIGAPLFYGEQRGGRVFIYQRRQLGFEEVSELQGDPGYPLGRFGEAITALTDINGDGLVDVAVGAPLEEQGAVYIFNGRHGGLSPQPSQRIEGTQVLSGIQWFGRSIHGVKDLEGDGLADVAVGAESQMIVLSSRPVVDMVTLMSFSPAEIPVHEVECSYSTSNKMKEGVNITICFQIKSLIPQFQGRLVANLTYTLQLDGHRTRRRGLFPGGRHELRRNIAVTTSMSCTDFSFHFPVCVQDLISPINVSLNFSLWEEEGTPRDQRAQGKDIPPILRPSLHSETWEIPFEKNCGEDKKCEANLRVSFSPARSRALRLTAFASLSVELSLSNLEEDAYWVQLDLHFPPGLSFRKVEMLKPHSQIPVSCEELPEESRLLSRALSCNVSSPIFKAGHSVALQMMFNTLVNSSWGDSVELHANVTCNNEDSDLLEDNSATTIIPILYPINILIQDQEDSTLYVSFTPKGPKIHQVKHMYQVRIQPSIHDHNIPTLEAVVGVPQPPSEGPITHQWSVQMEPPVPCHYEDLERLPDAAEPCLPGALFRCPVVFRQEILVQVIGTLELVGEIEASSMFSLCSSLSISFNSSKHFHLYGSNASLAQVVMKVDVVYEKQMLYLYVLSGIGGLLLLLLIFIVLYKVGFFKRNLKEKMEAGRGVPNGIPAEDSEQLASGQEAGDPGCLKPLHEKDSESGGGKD
T1 sequence (P05107 23-769, chain 2 of 2): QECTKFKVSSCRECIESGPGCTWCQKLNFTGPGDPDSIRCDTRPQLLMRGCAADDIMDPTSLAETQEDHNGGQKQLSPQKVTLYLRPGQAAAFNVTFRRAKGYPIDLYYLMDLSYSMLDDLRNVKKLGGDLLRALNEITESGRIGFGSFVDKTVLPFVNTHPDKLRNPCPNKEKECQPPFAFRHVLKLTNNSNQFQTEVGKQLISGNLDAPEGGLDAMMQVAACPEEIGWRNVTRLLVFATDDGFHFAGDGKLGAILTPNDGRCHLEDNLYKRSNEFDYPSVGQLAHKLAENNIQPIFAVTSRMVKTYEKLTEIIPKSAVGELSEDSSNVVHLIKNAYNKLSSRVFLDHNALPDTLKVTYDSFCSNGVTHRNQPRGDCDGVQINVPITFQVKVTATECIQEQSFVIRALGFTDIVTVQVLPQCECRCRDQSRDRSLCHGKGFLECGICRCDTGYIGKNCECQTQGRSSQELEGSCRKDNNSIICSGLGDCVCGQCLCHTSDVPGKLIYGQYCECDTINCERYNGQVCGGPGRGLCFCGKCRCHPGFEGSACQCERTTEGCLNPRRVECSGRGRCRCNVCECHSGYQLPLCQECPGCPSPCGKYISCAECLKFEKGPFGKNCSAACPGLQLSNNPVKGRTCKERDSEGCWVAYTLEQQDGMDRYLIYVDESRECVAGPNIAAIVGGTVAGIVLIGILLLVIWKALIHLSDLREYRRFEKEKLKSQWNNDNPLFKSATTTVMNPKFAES
Assay: inferred from modulation of HI111 staining of LFA-1 on mononuclear blood cells

Molecule | binding result
VFDEFKPLVEEPQNLIK (Synthetic (CSBio); also called 80) [synthesized albumin peptide 3028 VFDEFKPLVEEPQNLIK] | binds

Target: T1, LFA-1 (CD11a) on immune cells
Assay: effect of peptide pre-incubation on HI111 staining of LFA-1 on PBMC and THP-1 cytospins

Molecule | binding result
B1 | binds

Target: artificial cell surface (ACS): biotinylated cell surface proteins from human mononuclear blood cells coupled to streptavidin-sepharose
Assay: ACS affinity column adsorption of tryptic dHSA peptides, MALDI-TOF ms

Molecule | Per cent adsorbed (per cent adsorbed, printed as fraction)
HSA tryptic peptide residues 438-452 … | 0.64
HSA tryptic peptide residues 439-452 … | 0.59
LVNEVTEFAK [HSA tryptic peptide residues 066-075 …] | -0.02
YIC(Cam)ENQDSISSK [HSA tryptic peptide residues 287-298 …] | 0.03
DDNPNLPR [HSA tryptic peptide residues 131-138 DDNPNLPR] | 0.01
ETYGEMADC(Cam)C(Cam)AK [HSA tryptic peptide residues 106-117 …] | -0.08
KYLYEIAR [HSA tryptic peptide residues 161-168 KYLYEIAR] | 0.71
QNC(Cam)ELFEQLGEYK [HSA tryptic peptide residues 414-426 …] | 0.2
NECFLQHK (Cys alkylated with iodoacetamide (from dHSA)) [HSA tryptic peptide residues 123-130 NECFLQHK] | 0.22
LDELRDEGK [HSA tryptic peptide residues 206-214 …] | 0.02
AAFTEC(Cam)C(Cam)QAADK [HSA tryptic peptide residues 187-198 …] | 0.29
VHTEC(Cam)C(Cam)HGDLLEC(Cam)ADDR [HSA tryptic peptide residues 265-281 …] | 0.13
LCTVATLR (Cys alkylated with iodoacetamide (from dHSA)) [HSA tryptic peptide residues 098-105 LCTVATLR] | 0.35
YKAAFTEC(Cam)C(Cam)QAADK [HSA tryptic peptide residues 185-198 …] | -0.37
C(Cam)C(Cam)TESLVNR [HSA tryptic peptide residues 500-508 …] | 0.26
AVMDDFAAFVEK [HSA tryptic peptide residues 570-581 …] | 0.23
KVFDEFKPLVEEPQNLIKQ [HSA tryptic peptide residues 397-413 …] | 0.6
C(Cam)C(Cam)AAADPHEC(Cam)YAK [HSA tryptic peptide residues 384-396 …] | 0.32
FKDLGEENFK [HSA tryptic peptide residues 35-44 …] | 0.08
RPC(Cam)FSALEVDETYVPK [HSA tryptic peptide residues 509-524 …] | 0.42
SLHTLFGDK [HSA tryptic peptide residues 089-097 …] | 0.36
FQNALLVR [HSA tryptic peptide residues 427-434 FQNALLVR] | 0.41
YLYEIAR [HSA tryptic peptide residues 162-168 YLYEIAR] | 0.34
LKEC(Cam)C(Cam)EKPLLEK [HSA tryptic peptide residues 299-310 …] | 0.36

Target: artificial cell surface (ACS): biotinylated cell surface proteins from human mononuclear blood cells coupled to streptavidin-sepharose
Assay: ACS affinity column adsorption of tryptic dHSA peptides, MALDI-TOF ms; second of two lines for this peptide

Molecule | Per cent adsorbed (per cent adsorbed, printed as fraction)
QEPERNEC(Cam)FLQHK [HSA tryptic peptide residues 118-130 …] | 0.18

Target: artificial cell surface (ACS): biotinylated cell surface proteins from human mononuclear blood cells coupled to streptavidin-sepharose
Assay: ACS affinity column adsorption of ASP-N dHSA peptides (3200-9000 Da), MALDI-TOF ms

Molecule | Per cent adsorbed (per cent adsorbed, printed as fraction)
HSA ASP-N peptide residues 96-130 … | 1
VFLGMFLYEYARRHPDYSVVLLLRLAKTYETTLEKC(Cam)C(Cam)AAA [HSA ASP-N peptide residues 348-388 …] | 1
LGEENFKALVLIAFAQYLQQC(Cam)PFEDHVKLVNEVTEFAKTC(Cam)VA [HSA ASP-N peptide residues 37-79 …] | 1
IC(Cam)TLSEKERQIKKQTALVELVKHKPKATKEQLKAVM [HSA ASP-N peptide residues 536-572 …] | 1
YLSVVLNQLC(Cam)VLHEKTPVSDRVTKC(Cam)C(Cam)TESLVNRRPC(Cam)FSALEV [HSA ASP-N peptide residues 475-517 …] | 0.37
RVTKC(Cam)C(Cam)TESLVNRRPC(Cam)FSALEVDETYVPKEFNAETFTFHA [HSA ASP-N peptide residues 495-535 …] | 1
YSVVLLLRLAKTYETTLEKC(Cam)C(Cam)AAADPHEC(Cam)YAKVF [HSA ASP-N peptide residues 364-398 …] | 1
LAKYIC(Cam)ENQDSISSKLKEC(Cam)C(Cam)EKPLLEKSHC(Cam)IAEVEN [HSA ASP-N peptide residues 283-319 …] | 1

Target: T1, LFA-1 (CD11a) on immune cells
Assay: effect of peptide pre-incubation on HI111 staining of LFA-1 on PBMC cytospins

Molecule | binding result
B2 | binds

Target: artificial cell surface (ACS): biotinylated cell surface proteins from human mononuclear blood cells coupled to streptavidin-sepharose
Assay: ACS affinity column adsorption of ASP-N dHSA peptides (700-3600 Da), MALDI-TOF ms

Molecule | Per cent adsorbed (per cent adsorbed, printed as fraction)
DSISSKLKEC(Cam)C(Cam)EKPLLEKSHC(Cam)IAEVEN [HSA ASP-N peptide residues 293-319 …] | 0.65
DRVTKC(Cam)C(Cam)TESLVNRRPC(Cam)FSALEV [HSA ASP-N peptide residues 495-517 …] | 0.87
DKLC(Cam)TVATLRETYGEM [HSA ASP-N peptide residues 96-112 …] | 0.65
DETYVPKEFNAETFTHA [HSA ASP-N peptide residues 518-535 …] | 0.86
DDKETC(Cam)FAEEGKKLVAASQAALGL [HSA ASP-N peptide residues 586-609 …] | 1
DHVKLVNEVTEFAKTC(Cam)VA [HSA ASP-N peptide residues 62-79 …] | 1
